From patent publication US9731031B2, “Conjugate comprising oxyntomodulin and an immunoglobulin fragment, and use thereof” (Hanmi Science Co., Ltd., dated 2017)
Where no end group is shown, it is not given here. [ ]: non-standard residue; d: D form. The star is where a group is joined. Acetyl(2-(4-imidazolyl)) = O=C(Cc1c[nH]cn1)*; Aib = CC(C)(N)C(=O)O

B1: oxyntomodulin derivative of SEQ ID NO. 17 (peptide)
peptide: HSQGTFTSDYSRYLDEEAVRLFIEWIRNTKRNRNNIA
modifications: not fully specified (residue 1, N-terminus); also: N-terminal CA (4-imidazoacetyl), whether it replaces His1 not given here
B2: oxyntomodulin derivative of SEQ ID NO. 11 (peptide)
peptide: HGEGTFTSDLSRQMEEEAVRLFIEWAAHSQGTFTSDYSRYLDK
modifications: not fully specified (residue 1, N-terminus); also: N-terminal CA (4-imidazoacetyl), whether it replaces His1 not given here
B3: oxyntomodulin derivative of SEQ ID NO. 6 (peptide)
peptide: HGEGTFTSDLSRQMEEEAVRLFIEWAAHSQGTFTSDYSKYLD
modifications: not fully specified (residue 1, N-terminus); also: N-terminal CA (4-imidazoacetyl), whether it replaces His1 not given here

Key:
human glucagon receptor = human glucagon receptor (human, UniProt P47871); experiment: cell-based or functional assay
human GLP-1 receptor = human GLP-1 receptor (human, UniProt P43220); experiment: cell-based or functional assay

Binder | EC50 (nM), cAMP (human glucagon receptor) | EC50 (nM), cAMP (human GLP-1 receptor)
[Acetyl(2-(4-imidazolyl))]SQGTFTSDYSRYLDEEAVRLFIEWIRNGGPSSGAPPPSK (also: N-terminal CA (4-imidazoacetyl), whether it replaces His1 not given here) [oxyntomodulin derivative of SEQ ID NO. 18] | > 1000 nM | 
HSQGTFTSDYSRYLDEEAVELFIEWLMNTK [oxyntomodulin derivative of SEQ ID NO. 13] | > 1000 nM | > 1000 nM
H[Aib]QGTFTSDYSKYLDEKRAKEFVQWLMNTC (also: ring between residues marked, places not visible) [oxyntomodulin derivative of SEQ ID NO. 25] |  | 1.9 nM
B1 | > 1000 nM | 
Y[Aib]QGTFTSDYSKYLDEKRAKEFVQWLMNTC (also: ring marking not visible) [oxyntomodulin derivative of SEQ ID NO. 34] | 1 nM | 12.5 nM
H[Aib]QGTFTSDYSKYLDEKRAKEFVQWLMNTC (also: ring between residues marked, places not visible) [oxyntomodulin derivative of SEQ ID NO. 24] |  | 1.43 nM
B2 | > 1000 nM | > 1000 nM
[Acetyl(2-(4-imidazolyl))]SQGTFTSDYSKYLDERRAQDFVAWLKNTGPSSGAPPPS (also: N-terminal CA (4-imidazoacetyl), whether it replaces His1 not given here) [oxyntomodulin derivative of SEQ ID NO. 3] |  | > 1000 nM
[Acetyl(2-(4-imidazolyl))][Aib]QGTFTSDYSKYLDEKRAKEFVQWLMNTC (also: ring between residues marked, places not visible) [oxyntomodulin derivative of SEQ ID NO. 32] | 17.3 nM | 14.2 nM
[Acetyl(2-(4-imidazolyl))]SQGTFTSDLSRQLEEEAVRLFIEWLMNK (also: N-terminal CA (4-imidazoacetyl), whether it replaces His1 not given here) [oxyntomodulin derivative of SEQ ID NO. 8] | > 1000 nM | 
H[Aib]QGTFTSDYSKYLDEKRAKEFVCWLMNT (also: ring between residues marked, places not visible) [oxyntomodulin derivative of SEQ ID NO. 23] | 5.8 nM | 2.46 nM
B3 | > 1000 nM | 
H[Aib]QGTFTSDYAKYLDEKRAKEFVQWLMNTC (also: ring marking not visible) [oxyntomodulin derivative of SEQ ID NO. 33] | 80.2 nM | 2.2 nM
H[Aib]QGTFTSDYSKYLDEKRAKEFVQWLMNT (also: ring between residues marked, places not visible) [oxyntomodulin derivative of SEQ ID NO. 28] | 0.3 nM | 
